Experimental data: the DeepSol protein solubility set

Test: soluble on expression in E. coli; label from the status in PepcDB or PDB records

Sequence | soluble on expression in E. coli
MSLGSTQLQLHGLLSNISSKEGTYAKLGGLYTQSLARLVAKCEDLFMGGQKKELHFNENNWSLFKLTCNKPCCDSGDAIYYCATCSEDPGSTYAVKICKAPEPKTVSYCSPSVPVHFNIQQDCGHFVASVPSSMLSSPDAPKDPVPALPTHPPAQEQDCVVVITREVPHQTASDFVRDSAASHQAEPEAYERRVCFLLLQLCNGLEHLKEHGIIHRDLCLENLLLVHCTLQAGPREKQLPRLIISNFLKAKQKPGGTPNLQQKKSQARLAPEIVSASQYRKFDEFQTGILIYELLHQPNPFEVRAQLRERDYRQEDLPPLPALSLYSPGLQQLAHLLLEADPIKRIRIGEAKRVLQCLLWGPRRELVQQPGTSEEALCGTLHNWIDMKRALMMMKFAEKAVDRREGHHHHHH | not soluble
MGSDKIHHHHHHMAAELKTITVLGAGGKMGMRISANFQKSDYQVFYCENSPRAQEQVVAAGRELSIAEQVIPESDVVILAVPDIALKAVSGIVVPQMKSNAVLLTLDPAAAYANLIAKRDDIDYAVAHPCHPSVFLDRFTPEEHADAFGGVAAPQHVAASYETGSDEQKATLARVVKVMYGPVIDVHWVTVKQLAYLEPTLVETVACMVGTLMKEALDETINTIGVPEAAAKAMLYGHIQIALAVAFRSTNPFSDACMIAIEYGKENIIKPDWKKIFDEKELDLVIAKMLKIDAIER | not soluble
SNAAKPLPKEMEDFVQSSGENGVVVFSLGSMVSNMTEERANVIASALAQIPQKVLWRFDGNKPDTLGLNTRLYKWIPQNDLLGHPKTRAFITHGGANGIYEAIYHGIPMVGIPLFADQPDNIAHMKARGAAVRVDFNTMSSTDLLNALKRVINDPSYKENVMKLSRIQHD | soluble
MNRFIMANSQQCLGCHACEVACVMAHNDERHVLTSQRYQPRITVIKHQHQRSAVTCHHCEDAPCARSCPNGAIAHINDSVQVNAQKCIGCKSCVVACPFGTMQMVLTPVAPNQFKASAHKCDLCQGREQGPACVENCPADALQLVTEDSLTRLAKTRRLRTARQEIRPWHTVDTQHSGAASSKAERMQATPPRGEPDKLAIEARKTTFEEIYLPFRAAQAEREASRCLTCGEHSICEWTCPLHNHIPQWIELVKAGDIDAAVELSHQTNCLPEITGRVCPQDRLCEGACTLRDEYGAVTIGNIERYISDRALSKGWRPDLSDVQKSDKRVAIIGAGPAGLACADVLARHGVSATVYDRHPEIGGLLTFGIPAFKLDKSLLARRREIFSAMGIRFELNCEVGKDISLETLLESYDAVFVGVGTYRSMKADLPNEDAPGVYDALPFLIANTKQVMGLPALPDEPFIDTAGLNVVVLGGGDTAMDCVRTALRHGAANVTCAYRRDEANMPGSKKEVKNAREEGANFEFNVQPVELVLDTHGRASGIRFLRTRLGEPDGQGRRRPVPVPDSEFVMPADAVIMAFGFHPHGMSWLESHGVKVDNWGRIAASVESEFRYQTSNPKIFAGGDAVRGADLVVTAMAEGRHAAQGILDWLAK | not soluble
SQSLGDRQRDNEKIDKMQQILRSVNAGIEDKGKVIARYTDVIKQELLINQDGTVAKTFEGEQLAQNEAFTLNTRNAFKSAANDPSISLPLYIAEIEGQKK | not soluble
NPVENYIDEVLNEVLVVPNINSSNPTTSNSAPALDAAETGHTSSVQPEDVIETRYVQTSQTRDEMSLESFLGRSGCIHESKLEVTLANYNKENFTVWAINLQEMAQIRRKFELFTYTRFDSEITLVPCISALSQDIGHITMQYMYVPPGAPVPNSRDDYAWQSGTNASVFWQHGQAYPRFSLPFLSVASAYYMFYDGYDEQDQNYGTANTNNMGSLCSRIVTEKHIHKVHIMTRIYHKAKHVKAWCPRPPRALEYTRAHRTNFKIEDRSIQTAIVTRPIITTAGPSDMY | soluble
MSINIEQAIIHEISQDSQGQLRCRLRPQPLLNGQAVEMMLEELHQTYTSKSGKGFGYFGIHGDDGEANPAFANALKEYRAGDLGFVEFTGQASKLLQEELAKYDFSQGGFLLMSCYTSMASDYLFVALLSAKSSMTVLDDMELSQNNHLDLNNIQLAARIDLTELQADKDSRKYISFIRGRAGRKVADFFLDFMGCVEGVNTKAQNKTLMNAVEDFVASSDLTKEERQQCRNKVFEYCSERFDEGADIEIKDLADELADQGMESFYDFARGGSYELDEEFPADKSTLRQLKKFSGTGGGVTISFDGGHLGQRVIYDPISDTILIKGVPANLKDQLDRRLKGE | soluble
MAIKGLDQAIDNLSRVRKNAIPAASAMTINRVATTAINQSSSQVARETKVRRKLVKERSRLKRATVRNPNAKIIVNRGDLPVIKLGIRMLGRRPNSILKAGQHRYQRAFIQRLKNGRWHVMQRVAGKNRYPIDVVKIPMAAPLKQAFDENVDRIRCERLPGELASALKQQLRIAIKR | not soluble
MPVILNFSSERVLSESELEALRHVGRVSQSEQLVVRGRTMRLHHISFMDSFSVEPVSGGLLDRLSARGHRLLAENLEIQLNRGHTFLQAFRLYMEQSRATPCTRQNVSSAIQNKINSHAFTVSHQDFSCHEQHLNCPITLCIPETGVFVRNAKNSEICSLYDHNALTELIRRNAPHPLSREPFVPEMIVSKDECHFNLIEQYFCILATQNICTRI | not soluble
MFCRDTLCDTTPAVTDFLNGLSAVASKSPCSGDGALSDGHNAQSRMPVMGHVFLTGLLCVSRLARKRQLLLKRLKQSALPPRASATPSMEDVAVQSPSAAADAGDTVFVRLVLSLLGHTLMKQATTAPCAASPGDNASPQAAPLPWWPATSAPSENAEDVVYDVQCVGNEDDHAGDNVGFSEEHAPGVGHMLFTASTSVHCRIVLRSHPVAIFSPAMMSELALDAEQRASVASRTWCHGGAPGTDSSEAVDAEADAGSCVARALEVFDACVRDHEEACLRQIAEIVGSLQRLLEKPATEVQSPGGLASTGSPSDSANASASRLGGCASPLHEWTIDVPIYGVVLYIEDTHATRLERVRRLTTPLLQAATGCGNAAGGPLGPVTQVLSKLHTWCAAWTAASSTSSTSPGASSCTPGIRTITLMHVTELRQLVDSHLKNSQTAAARLPGPANPATVGYDVSQALAAPACVVHCQLGVSRSPSVVMLFYMDVLAPQLRAAASAAEAPLNIFHGLLNALVQARHRVRPNVCFSAQLLSLWRRLMQLDTPASPTRVV | not soluble
MGSDKIHHHHHHMSLPAQLRVLEVVQSLEKGGRTTRFTDTVAGLRAQKIFTVPLCISKPESWVSIPDLEVLHKTAGINWKLVFQIRKKIIKNNINLIHAHCEFSQLYASIAGVTCGIKTVATFHRSDLSKYQPNMVNKLIKLFASHFVAVSHDRLSLLTNNLKLPLNKCHVVHGGSVIEKKPTVTSINKARADLGIPLDQLMLLSIGHLGEIKGHQDTLVALSKFTKTMPALHLYIAGDGAAQEKQKLTELVNKLQINENVTFLGQINNAFSWLEACDIFIQPSVEEAFGLVFVEAGAKAKPVIATTVGGIKEIIVSKETGLLVLPSSPKAVEHALAILINSPPLRQQYGENGYKRITEHFSLTNMVNKYTDIFNQAVN | not soluble
MGSDKIHHHHHHMKSTTVPSEGGGGLDATTRTSVQPHPLHGPDATWQETNCYIDLWIELLHAWGLDPRAALPFTVAQDFEGDHFTFFKYPQADLETLYGTVVQEMAVYDTLQAHVVTQVERGHTVLVEVDSYYLPDTHATAYKREHVKTTVAIDNIDPHAQRLSYFHSLGYHSAHDEDYRGLMRLSRELSGNGNILFPYAECAKRVRPALTMPAMADASVALMRQHLDRLPAINPVTLWRREFDAHMDTLLARDDAYFHLYTFNLPRQLGANFEMLHHWLRWLDEQGRGNPLAARAAESAATIAAEAKVLQFRLARAVARRRADPCTQSLDVLECCYDKTVEGLLSAFGDTRLAAA | not soluble
MSLKTVFKPTLLAVLVAASAPVLAHSLIADTKAPSPTTKAFAAEQRNTLPFADQEDFKLVEKGLIAQQKDLEIKDANGKVVWELGNYRFLLDGLDYDSIHPSLQRQAQLNMHHGLYKVTDRIYQVRGYDLANITFVKGDTGWIVFDPLTVPATAKAALDFVNQELGERPVKAVVYSHAHADHFGGVKGIVSQEQVDRGEVPIIAPKGFLNHAVAENVLAGNAMSRRTTYQYGNVLPKGATGQVDAAIGKNVAQGEVSLIAPTKVISEQTETVVIDGVTMEFQNTPGTESPAEMNTYFPQFKALWMAENTVGGLHNVYTLRGAEVRDAKAWSKYINESIHMYAKEADVMFASHTWPRWGNDNINHFLRKQRDMYGYIHDQALRLANHGVTINEIQDEFHVPDVLAHEWYNRGYHGSYHRNAKAVINKYLGYFDMNPATLRPLAPTDAAPKYVAAMGGMDNVIKLGKEAFDKGEFRWCAEIVDKAVFAEPSNKQARYLQADCLEQLGYQSESAGERNTYLMGAYELRNGVPKVSATKTAGADTVVAMDTELFLDYLGVRLNGDKAAGIDYTINFVLPDVNEKFLVELENAHLNNLKGIQSENPDMTLTLNRAQLNQVLMGKTTIQQLAKEGKAKIEGNAQALTDIAGMLDNFEFWFNIIEPKTKEGGSHHHHHH | soluble
MDQLEHLSLVSKVLSEVENHFGVVEKDVAEFVIHLAQENPTFDKLKKALDSQGLGDQFDDSLTATILRIVQSMTAVKKKNKKGGDSKEDIKDSHKITLISDAKEEIKARLPALAMANTAKEKEDNEDDLMAQLEKMEGRYESEKRLQKESDSKRNRSRSRSRSRDRKRRRSRSGDRDRRRRSRSREDRRDRDRRDRDRDRDRGRGDRRGDDRQRDRRDRRDDGGARKSEVAEIGKIYDGRVNSIQSFGAFITLEGFRQKQEGLVHISQIRNERVQTVADVLKRGENVKVKVNKIENGKISLSMKEVDQNSGEDLNPRETDLNPDAIGVRPRTPPASTSSWMNPEASGVGQGPSTSIGGGKARVRISTPERWELRQMQGAGVLTATDMPDFDEEMGVLRNYDDESDGEDIEIELVEDEPDFLRGYGKGGAEIEPVKVVKNPDGSLAQAALMQGALSKERKETKIQAQRERDMDTQKGFSSNARILDPMSGNQSTAWSADESKDRNNKMKEMPEWLKHVTAGGKATYGRRTNLSMVEQRESLPIFALKKNLMEAMIDNQILVVVGETGSGKTTQMTQYAIEAGLGRRGKIGCTQPRRVAAMSVAKRVAEEYGCKLGTDVGYTIRFEDCTSQDTIIKYMTDGMLLRECLIDPDLSGYSLIMLDEAHERTIHTDVLFGLLKAAARKRPELKLIITSATLDSVKFSEYFLEAPIFTIPGRTFPVEILYTREPESDYLEAAHITVMQIHLTEPPGDVLVFLTGQEEIDTSCEVLYERMKSMGPDVPELIILPVYGALPSEMQTRIFDPAPAGKRKVVIATNIAETSLTIDGIFYVVDPGFVKQKIYNPKSGMDSLVVTPISQAAAKQRSGRAGRTGPGKCYRLYTERAFRDEMLPTPVPEIQRTNLASTLLQLKAMGINNLIDFDFMDAPPLDSMITALNTLHTLSALDGDGLLTKLGRRMAEFPLEPSLSKLLIMSVDLGCSEEVLTIVAMLNVQNIFYRPKEKQDHADQKKAKFHQPEGDHLTLLAVYNSWKNHHFSQPWCFENFIQVRSMKRAQDIRKQLLGIMDRHKLLMVSCGRDVSRVQKAICSGFFRNAAKRDPQEGYRTLTDGQNVYIHPSSACFQQQPEWVVYHELVMTTKEYMREVTAIDPKWLVEFAPSFFKIGDSTKLSTFKRNQKIDPLFDKYADANAWRITRVKKRIYNPNK | soluble
MKELMRNVYLLDDTLVTKSKYGSHYGEKVFDGYREWVPWRSKLAAMILKGHRLKLRGDERVLYLGAASGTTVSHLADIVDEGIIYAVEYSAKPFEKLLELVRERNNIIPLLFDASKPWKYSGIVEKVDLIYQDIAQKNQIEILKANAEFFLKEKGEVVIMVKARSIDSTAEPEEVFKSVLKEMEGDFKIVKHGSLMPYHRDHIFIHAYRF | soluble
MQTSDSIVIIPTYNERENIENIIRAVFGLEKTFHILIIEDGSPDGTAAIVKTLQQEFPDRLFMIERKGKLGLGTAYITGFKWALEHSYEYIFEMDADFSHNPNDLPRLYEACAVQGGDVAIGSRYVSGVNVVNWPMGRVLMSYFASKYVRIVTGLPIHDTTAGFKCYRRQVLETIDLDHIRFKGYAFQIEMKFTAYKCGFKIIEVPVIFINRELGTSKMNSSIFGEAVFGVIKLKVNSWFHTFPQKTKMNLEHHHHHH | not soluble
